Results reported in patent publication US20200231538, “NOVEL COMPOUNDS AND THERAPEUTICS USES THEREOF” (Centauri Therapeutics Limited (GB/GB), published 2020).

How the values were obtained:
EGFR [1] = target: T1, EGFR (Homo sapiens, UniProt P00533 P00533:25-1210); assay: flow; 10 nM (9.8 at 1 uM); anti-alpha-Gal IgG recruitment to A431 cells; PBS, 5 mM MgCl2, RT; settings: tags: A431 cells (ATCC CRL-1555), endogenous overexpression
Procedure: (§1) A431 cells (ATCC CRL-1555) were harvested and resuspended at 5×10⁶ cells/mL in phosphate buffered saline (PBS) (Sigma D8662)+0.1% BSA (Bovine Serum Albumin—Sigma A2153)+0.1 mg/mL Yeast t-RNA (Invitrogen 15401-011)+5 mM MgCl₂ (Sigma M1028) and incubated on ice for 30 minutes to block. 5×10⁵ cells were then incubated with compound at various concentrations as described below or buffer alone at room temperature, shaking at 450 rpm for 1 hour. The cells were washed with 3×200 μL PBS+0.1% BSA, prior to adding 50 μL of Anti-alpha galactosyl IgG antibody (custom purification from human IVIG, Rockland Immunochemicals, Inc.) at 35 μg/mL in PBS+0.1% BSA and incubating at 4° C. for 1 hour. The cells were further washed with 3×200 μL PBS+0.1% BSA before being treated with 100 μL 1:40 dilution of Anti-Human IgG-PE (phycoerythrin) (Biolegend 409303) at 4° C. for 1 hour. After a final wash of 3×200 μL PBS+0.1% BSA the cells were resuspended in 200 μL PBS+0.1% BSA and evaluated on a flow cytometer (FC500 Beckman Coulter). Data from all samples were analysed in the Kaluza software package (Beckman Coulter).
(§2) The fold shift over background was calculated by dividing the Mean Fluorescence Intensity (MFI) obtained in the presence of 10 nM or 1 μM alphamer by the Mean Fluorescence Intensity (MFI) obtained in the absence of alphamer. […]

EGFR [2] = target: T1, EGFR; assay: flow; 10 nM (16.3 at 1 uM); anti-alpha-Gal IgG recruitment to A431 cells; PBS, 5 mM MgCl2, RT; settings: tags: A431 cells (ATCC CRL-1555), endogenous overexpression
Procedure: as §1, §2

EGFR [3] = target: T1, EGFR; assay: flow; 10 nM (18.4 at 1 uM); anti-alpha-Gal IgG recruitment to A431 cells; PBS, 5 mM MgCl2, RT; settings: tags: A431 cells (ATCC CRL-1555), endogenous overexpression
Procedure: as §1, §2

EGFR [4] = target: T1, EGFR; assay: flow; 10 nM (7.5 at 1 uM); anti-alpha-Gal IgG recruitment to A431 cells; PBS, 5 mM MgCl2, RT; settings: tags: A431 cells (ATCC CRL-1555), endogenous overexpression
Procedure: as §1, §2

PSMA [5] = target: T2, PSMA (Homo sapiens, UniProt Q04609 Q04609:1-750); assay: flow; 10 nM (11.1 at 1 uM); anti-alpha-Gal IgG recruitment to LNCaP cells; PBS, 5 mM MgCl2, RT; settings: tags: LNCaP cells (ATCC CRL-1740), endogenous overexpression
T2 sequence (Q04609 whole entry, one chain of several): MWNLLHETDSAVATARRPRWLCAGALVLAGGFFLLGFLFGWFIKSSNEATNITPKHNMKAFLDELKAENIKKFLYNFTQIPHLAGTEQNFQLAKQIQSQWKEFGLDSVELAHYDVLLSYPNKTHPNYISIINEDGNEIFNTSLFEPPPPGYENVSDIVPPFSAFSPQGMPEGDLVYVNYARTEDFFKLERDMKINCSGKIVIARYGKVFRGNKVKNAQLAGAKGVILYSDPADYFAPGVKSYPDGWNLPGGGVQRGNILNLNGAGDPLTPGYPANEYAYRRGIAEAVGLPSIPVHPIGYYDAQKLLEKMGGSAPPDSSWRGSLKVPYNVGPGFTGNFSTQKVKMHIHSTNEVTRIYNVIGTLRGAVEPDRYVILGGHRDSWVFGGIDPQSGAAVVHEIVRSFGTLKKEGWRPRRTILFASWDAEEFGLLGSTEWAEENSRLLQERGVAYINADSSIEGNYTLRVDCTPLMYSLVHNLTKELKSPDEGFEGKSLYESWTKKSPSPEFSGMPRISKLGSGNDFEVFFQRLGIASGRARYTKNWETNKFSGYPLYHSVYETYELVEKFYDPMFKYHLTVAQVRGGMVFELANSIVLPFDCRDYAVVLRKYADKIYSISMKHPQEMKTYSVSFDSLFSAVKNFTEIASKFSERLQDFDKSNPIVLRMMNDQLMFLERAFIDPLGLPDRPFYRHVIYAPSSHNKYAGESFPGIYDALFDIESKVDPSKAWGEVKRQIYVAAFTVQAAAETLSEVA
Procedure: as §1, with “LNCaP” for “A431”, “CRL-1740)” for “CRL-1555)”, “The cells were washed with 3×200 μL PBS+0.1% BSA, prior to adding 50 μL of Anti-alpha galactosyl IgG antibody (custom purification from human IVIG, Rockland Immunochemicals, Inc.) at 35 μg/mL in PBS+0.1% BSA and incubating at 4° C. for 1 hour.” left out
as §2, with “alphamer. The fold shift over background is reported as a geometric mean with standard error in brackets. The number of independent experiments is also reported.” for “alphamer.”

PSMA [6] = target: T2, PSMA; assay: flow; 10 nM (8.6 at 1 uM); anti-alpha-Gal IgG recruitment to LNCaP cells; PBS, 5 mM MgCl2, RT; settings: tags: LNCaP cells (ATCC CRL-1740), endogenous overexpression
Procedure: as §1, with “LNCaP” for “A431”, “CRL-1740)” for “CRL-1555)”, “The cells were washed with 3×200 μL PBS+0.1% BSA, prior to adding 50 μL of Anti-alpha galactosyl IgG antibody (custom purification from human IVIG, Rockland Immunochemicals, Inc.) at 35 μg/mL in PBS+0.1% BSA and incubating at 4° C. for 1 hour.” left out
as §2, with “alphamer. The fold shift over background is reported as a geometric mean with standard error in brackets. The number of independent experiments is also reported.” for “alphamer.”

PSMA [7] = target: T2, PSMA; assay: flow; 10 nM (8.5 at 1 uM); anti-alpha-Gal IgG recruitment to LNCaP cells; PBS, 5 mM MgCl2, RT; settings: tags: LNCaP cells (ATCC CRL-1740), endogenous overexpression
Procedure: as §1, with “LNCaP” for “A431”, “CRL-1740)” for “CRL-1555)”, “The cells were washed with 3×200 μL PBS+0.1% BSA, prior to adding 50 μL of Anti-alpha galactosyl IgG antibody (custom purification from human IVIG, Rockland Immunochemicals, Inc.) at 35 μg/mL in PBS+0.1% BSA and incubating at 4° C. for 1 hour.” left out
as §2, with “alphamer. The fold shift over background is reported as a geometric mean with standard error in brackets. The number of independent experiments is also reported.” for “alphamer.”

B1: Example 1 (EGFR aptamer 1-alpha-Gal double cluster 1) (ssRNA)
RNA: GGGAUUUAAUCGCCGUAGAAAAGCAUGUCAAAGCCGGAACCC
modifications: 2'-F pyrimidines, 2'-OMe at most purines (mG, most mA), remaining A 2'-OH; 5' H2N-(CH2)6 linked to alpha-Gal cluster; 3' idT
binding signal (EGFR [1]): 7.7 fold MFI over background

B2: Example 3 (EGFR aptamer 1-alpha-Gal double cluster 3) (ssRNA)
RNA: GGGAUUUAAUCGCCGUAGAAAAGCAUGUCAAAGCCGGAACCC
modifications: 2'-F pyrimidines, 2'-OMe at most purines (mG, most mA), remaining A 2'-OH; 5' H2N-(CH2)6 linked to alpha-Gal cluster; 3' idT
binding signal (EGFR [2]): 9.7 fold MFI over background

B3: Example 2 (EGFR aptamer 1-alpha-Gal double cluster 2) (ssRNA)
RNA: GGGAUUUAAUCGCCGUAGAAAAGCAUGUCAAAGCCGGAACCC
modifications: 2'-F pyrimidines, 2'-OMe at most purines (mG, most mA), remaining A 2'-OH; 5' H2N-(CH2)6 linked to alpha-Gal cluster; 3' idT
binding signal (EGFR [3]): 10.7 fold MFI over background

B4: Example 4 (EGFR aptamer 1-alpha-Gal double cluster 4) (ssRNA)
RNA: GGGAUUUAAUCGCCGUAGAAAAGCAUGUCAAAGCCGGAACCC
modifications: 2'-F pyrimidines, 2'-OMe at most purines (mG, most mA), remaining A 2'-OH; 5' H2N-(CH2)6 linked to alpha-Gal cluster; 3' idT
binding signal (EGFR [4]): 3.4 fold MFI over background

B5: Example 5 (PSMA aptamer A9g-alpha-Gal double cluster 1) (ssRNA)
RNA: GGGACCGAAAAAGACCUGACUUCUAUACUAAGUCUACGUUCCC
modifications: 2'-F pyrimidines, 2'-OH purines; 5' H2N-(CH2)6 linked to alpha-Gal cluster; 3' idT
binding signal (PSMA [5]): 7.8 fold MFI over background

B6: Example 7 (PSMA aptamer A9g-alpha-Gal double cluster 2) (ssRNA)
RNA: GGGACCGAAAAAGACCUGACUUCUAUACUAAGUCUACGUUCCC
modifications: 2'-F pyrimidines, 2'-OH purines; 5' H2N-(CH2)6 linked to alpha-Gal cluster; 3' idT
binding signal (PSMA [6]): 3.82 fold MFI over background

B7: Example 6 (PSMA aptamer A9g-alpha-Gal double cluster 5) (ssRNA)
RNA: GGGACCGAAAAAGACCUGACUUCUAUACUAAGUCUACGUUCCC
modifications: 2'-F pyrimidines, 2'-OH purines; 5' H2N-(CH2)6 linked to alpha-Gal cluster; 3' idT
binding signal (PSMA [7]): 5.33 fold MFI over background
